# Measured values as given in paper PMC2796168.
# pKd: −log10 of the molar value.
# Legend:
# [1] = molecular target: CCL3 (Homo sapiens) (UniProt P10147); details: cited from earlier work
# [2] = molecular target: CCL4 (Homo sapiens) (UniProt P13236); details: cited from earlier work
# [3] = molecular target: CCL18 (Homo sapiens) (UniProt P55774); details: cited from earlier work
# [4] = molecular target: non-glycosylated Evasin-1 (Rhipicephalus sanguineus) (UniProt P0C8E7); experiment: crystal structure; complex of non-glycosylated Evasin-1 and ΔAla1-CCL3 (A10T), formed overnight at 4°C at a molar ratio of 1:2.5, captured on Ni-NTA; crystals in 24% PEG 3350, 0.2 M ammonium sulphate, 0.1 M HEPES pH 8.1; 1.9 Å
# Sequence of non-glycosylated Evasin-1 (Rhipicephalus sanguineus) (P0C8E7 21-114): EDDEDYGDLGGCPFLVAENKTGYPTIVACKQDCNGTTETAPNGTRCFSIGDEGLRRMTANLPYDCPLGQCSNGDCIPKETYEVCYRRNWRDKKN
# Sequence of Evasin-1 (P0C8E7 21-114): as above
# Sequence of CCL3 (Homo sapiens) (P10147 24-92): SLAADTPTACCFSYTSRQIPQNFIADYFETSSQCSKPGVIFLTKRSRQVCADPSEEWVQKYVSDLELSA
# Sequence of CCL18 (Homo sapiens) (P55774 24-89): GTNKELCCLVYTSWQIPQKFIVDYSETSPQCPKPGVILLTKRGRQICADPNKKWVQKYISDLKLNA
# Sequence of CCL4 (Homo sapiens) (P13236 24-92): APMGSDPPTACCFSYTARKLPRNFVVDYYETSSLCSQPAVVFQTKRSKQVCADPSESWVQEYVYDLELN
Substance,pKd [1],pKd [2],pKd [3],stoichiometry N [4]
Evasin-1 (from UniProt P0C8E7),9.80,9.09,8.49,–
ΔAla1-CCL3 (A10T) (ligand),–,–,–,1
